The results in this text go back to patent US20040248178A1 (GENERAL HOSPITAL, published 2004).

The data set deals with the molecule itself. In words: transmission electron microscopy after rotary shadowing (self-association).

B1: Recombinant mouse β-netrin lacking the C domain, with His tag (rβ-NΔC+His) (ligand)
chain: GLNGVAGANSRCEKACNPRMGNLALGRKLRADTMCGQNATELFCFYSENADLTCRQPKCDKCNAAHSHLAHPPSAMADSSFRFPRTWWQSAEDVHREKIQLDLEAEFYFTHLIMVFKSPRPAAMVLDRSQDFGKTWKPYKYFATNCSATFGLEDDVVKKGAICTSRYSNPFPCTGGEVIFRALSPPYDIENPYSAKVQEQLKITNLRVRLLKRQSCPCQINDLNAKPHHFMHYAVYDFIVKGSCFCNGHADQCLPVEGFRPIKAPGAFHVVHGRCMCKHNTAGSHCQHCAPLYNDRPWEAADGRTGAPNECRTCKCNGHADTCHFDVNVWEASGNRSGGVCNNCQHNTEGQHCQRCKPGFYRDLRRPFSAPDACKACSCHPVGSAILPFSSVTFCDPSNGDCPCKPGVAGPHCDRCMVGYWGFGDYGCRPCDCAGSCDPLTGDCISSNADVDWY
notes: also called rβ-NAC+His; rβ-netrin ΔC; not shown: six histidine tag followed by a thrombin cleavage site
Turning to B1, the binding result is “no binding”.
